Publication PMC7980463 (Proceedings of the National Academy of Sciences of the …, 2021)
Numbering of substitutions follows the chain as printed.

T1: MsGyrB47 (D348A) (M. smegmatis, UniProt A0QNE0 1-427, D348A)
T1 sequence: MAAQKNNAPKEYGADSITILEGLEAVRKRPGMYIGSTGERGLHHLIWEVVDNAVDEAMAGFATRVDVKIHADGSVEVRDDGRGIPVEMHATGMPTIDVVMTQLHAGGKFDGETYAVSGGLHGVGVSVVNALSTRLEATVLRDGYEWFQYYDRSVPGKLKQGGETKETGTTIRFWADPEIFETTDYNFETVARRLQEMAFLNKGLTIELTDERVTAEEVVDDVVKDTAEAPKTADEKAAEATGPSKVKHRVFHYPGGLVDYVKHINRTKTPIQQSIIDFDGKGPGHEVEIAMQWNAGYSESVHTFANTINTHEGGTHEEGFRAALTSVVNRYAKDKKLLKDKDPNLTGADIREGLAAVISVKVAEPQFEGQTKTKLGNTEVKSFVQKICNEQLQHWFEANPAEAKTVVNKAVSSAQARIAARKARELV

B1: Mycobacterium smegmatis MfpA (natural protein, M. smegmatis)
chain: MRIGANGDETVWADEEFAGRDFRDEDLSRIRTERVVFTECDFSGVDLSESEHHGSAFRNCTFRRSTIWHSTFTNCSLLGSVFTECRIRPVTFVECDFTLAVLGGCDLRAVDLSDCRLREVSLVGADLRKAVLRRADLTGSRVQDARLEEADLRGTRVDPTFWTTAKVRGAKIDIEQALAYAAAHGLAVHGG
B2: MsGyrB47, the ATPase (N-terminal) domain of M. smegmatis GyrB (domain or fragment)
chain: T1 sequence with A348D

Experiments:
MsGyrB47 (D348A) = biological target: T1, MsGyrB47 (D348A); assay: cell-based or functional assay
crystal structure = biological target: the molecule itself; assay: crystal structure

| Binder | stimulation of the ATPase activity by MsMfpA, compared with wild-type MsGyrB47 (MsGyrB47 (D348A)) | stoichiometry N (crystal structure) |
| --- | --- | --- |
| B1 | ~2 fold decrease |  |
| B2 |  | 2 |
